Patent US20190359712A1 (Daiichi Sankyo, published 2019)

What was measured:
[1] = biological target: T1, cynomolgus monkey CD3 on cynomolgus monkey PBMC or T cell line HSC-F (cynomolgus monkey, UniProt Q95LI5 22-198); test: flow cytometry on cynomolgus monkey PBMC
T1 construct: whole, on cells; Native CD3 complex on monkey T cells; also called cynomolgus monkey CD3 (PBMC); cynomolgus monkey CD3 antigen

human CD3 on human PBMC = biological target: T2, human CD3 on human PBMC (human, UniProt P07766 23-207); test: flow cytometry on human PBMC
T2 construct: Native CD3 complex on T cells in PBMC; the other chains of the complex are native; also called human CD3 (PBMC)

T1 sequence (Q95LI5 22-198): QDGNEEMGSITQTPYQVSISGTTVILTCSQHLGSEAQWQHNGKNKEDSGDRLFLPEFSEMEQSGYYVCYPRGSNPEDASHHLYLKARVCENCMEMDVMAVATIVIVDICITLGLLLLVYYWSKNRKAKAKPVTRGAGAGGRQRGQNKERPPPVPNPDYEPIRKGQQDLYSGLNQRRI

Row | Binder | binding result [1] | binding result (human CD3 on human PBMC)
1 | C3E-7078 (CDR modified humanized anti-CD3 scFv) (scFv, the change is already in the entry) scFv: GEVQLVESGGGLVQPGGSLRLSCAASGVTFNYYGMSWIRQAPGKGLEWVASITRSGGRIYYPDSVKGRFTISRENTQKTLYLQMNSLRAEDTAVYYCTLDGRDGWVAYWGQGTLVTVSSGGGGSGGGGSGGGGSNFMLTQPHSVSESPGKTVTISCKRNTGNIGSNYVNWYQQHEGSSPTTIIYRDDKRPDGVSDRFSGSIDRSSKSASLTISNLKTEDEADYFCQSYSSGFIFGGGTKLTVLGAAAGAGGDYKDDDDKGAAAHHHHHH | binds | binds
2 | C3E-7086 (CDR modified humanized anti-CD3 scFv) (scFv, C3E-7078 with glycine for aspartic acid at position 52 of the VL; the change is already in the entry) scFv: GEVQLVESGGGLVQPGGSLRLSCAASGVTFNYYGMSWIRQAPGKGLEWVASITRSGGRIYYPDSVKGRFTISRENTQKTLYLQMNSLRAEDTAVYYCTLDGRDGWVAYWGQGTLVTVSSGGGGSGGGGSGGGGSNFMLTQPHSVSESPGKTVTISCKRNTGNIGSNYVNWYQQHEGSSPTTIIYRGDKRPDGVSDRFSGSIDRSSKSASLTISNLKTEDEADYFCQSYSSGFIFGGGTKLTVLGAAAGAGGDYKDDDDKGAAAHHHHHH | binds | binds
3 | C3E-7089 (CDR modified humanized anti-CD3 scFv) (scFv, C3E-7078 with serine for aspartic acid at position 52 of the VL; the change is already in the entry) scFv: GEVQLVESGGGLVQPGGSLRLSCAASGVTFNYYGMSWIRQAPGKGLEWVASITRSGGRIYYPDSVKGRFTISRENTQKTLYLQMNSLRAEDTAVYYCTLDGRDGWVAYWGQGTLVTVSSGGGGSGGGGSGGGGSNFMLTQPHSVSESPGKTVTISCKRNTGNIGSNYVNWYQQHEGSSPTTIIYRSDKRPDGVSDRFSGSIDRSSKSASLTISNLKTEDEADYFCQSYSSGFIFGGGTKLTVLGAAAGAGGDYKDDDDKGAAAHHHHHH | binds | binds
4 | C3E-7079 (CDR modified humanized anti-CD3 scFv) (scFv, the change is already in the entry) scFv: GEVQLVESGGGLVQPGGSLRLSCAASGVTFNYYGMSWIRQAPGKGLEWVASITSSGGRIYYPDSVKGRFTISRENTQKTLYLQMNSLRAEDTAVYYCTLDGRDGWVAYWGQGTLVTVSSGGGGSGGGGSGGGGSNFMLTQPHSVSESPGKTVTISCKRNTGNIGSNYVNWYQQHEGSSPTTIIYRDDKRPDGVSDRFSGSIDRSSKSASLTISNLKTEDEADYFCQSYSSGFIFGGGTKLTVLGAAAGAGGDYKDDDDKGAAAHHHHHH | binds | binds

Other lines, results leading:

Row | binding result [1] | binding result (human CD3 on human PBMC) | Binder
5 | binds | binds | C3E-7088 (CDR modified humanized anti-CD3 scFv) (scFv, C3E-7078 with asparagine for aspartic acid at position 52 of the VL; the change is already in the entry) scFv: GEVQLVESGGGLVQPGGSLRLSCAASGVTFNYYGMSWIRQAPGKGLEWVASITRSGGRIYYPDSVKGRFTISRENTQKTLYLQMNSLRAEDTAVYYCTLDGRDGWVAYWGQGTLVTVSSGGGGSGGGGSGGGGSNFMLTQPHSVSESPGKTVTISCKRNTGNIGSNYVNWYQQHEGSSPTTIIYRNDKRPDGVSDRFSGSIDRSSKSASLTISNLKTEDEADYFCQSYSSGFIFGGGTKLTVLGAAAGAGGDYKDDDDKGAAAHHHHHH
6 | binds | binds | C3E-7090 (CDR modified humanized anti-CD3 scFv) (scFv, C3E-7078 with alanine for aspartic acid at position 52 of the VL; the change is already in the entry) scFv: GEVQLVESGGGLVQPGGSLRLSCAASGVTFNYYGMSWIRQAPGKGLEWVASITRSGGRIYYPDSVKGRFTISRENTQKTLYLQMNSLRAEDTAVYYCTLDGRDGWVAYWGQGTLVTVSSGGGGSGGGGSGGGGSNFMLTQPHSVSESPGKTVTISCKRNTGNIGSNYVNWYQQHEGSSPTTIIYRADKRPDGVSDRFSGSIDRSSKSASLTISNLKTEDEADYFCQSYSSGFIFGGGTKLTVLGAAAGAGGDYKDDDDKGAAAHHHHHH
7 | binds | binds | C3E-7087 (CDR modified humanized anti-CD3 scFv) (scFv, C3E-7078 with glutamine for aspartic acid at position 52 of the VL; the change is already in the entry) scFv: GEVQLVESGGGLVQPGGSLRLSCAASGVTFNYYGMSWIRQAPGKGLEWVASITRSGGRIYYPDSVKGRFTISRENTQKTLYLQMNSLRAEDTAVYYCTLDGRDGWVAYWGQGTLVTVSSGGGGSGGGGSGGGGSNFMLTQPHSVSESPGKTVTISCKRNTGNIGSNYVNWYQQHEGSSPTTIIYRQDKRPDGVSDRFSGSIDRSSKSASLTISNLKTEDEADYFCQSYSSGFIFGGGTKLTVLGAAAGAGGDYKDDDDKGAAAHHHHHH
